Source: doi:10.1101/2022.03.24.485560

Target: TRIM7 PRY-SPRY domain (338-511 aa) (human) (UniProt Q9C029)
Experiment: ITC

Substance | Kd [µM]
C-terminal peptide fragment of RACO-1 | 10
C-terminal peptide fragment of glycogenin-1 (GN1) | 8
CVB3 2C (117-329 aa) (domain or fragment) | 6
CVB3 2C-derived peptide (319-329 aa) | 3
